From US20250009854A1

Target: NL63 trimer (human coronavirus NL63)

Substance	IC50 [µM]
trACE2-Fc-WT (Fc fusion)	0.1
flACE2-Fc-WT (Fc fusion)	0.0527
